Molecular target: HA ectodomain of B/Florida/4/2006 (influenza B virus B/Florida/4/2006 (Yamagata lineage))
Assay: negative stain EM reconstruction

HA ectodomain of B/Florida/4/2006 (domain or fragment)
stoichiometry N: 3

From article PMC3538841
